The results in this text go back to the domain aggregation screens of Martell et al. (2025).

The nature of this series: soluble fraction after stress (log2 fold change); higher = more stays soluble; pooled small domains, quantitative proteomics. The settings on record: stress: 50 degC. Put shortly: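 Pooled custom libraries of small protein domains were each held under stress at 50°C. The read-out, high-throughput quantitative proteomics, tracked how much of each protein stayed soluble. This is reported as a base-two log fold change used to indicate aggregation propensity. Higher values mean more protein remains in solution.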

In the case of “HMTTIRQQAEVPLSAAGRRFDQALAEMFPAYSRSRLSGWIKAGAATLDGAPAAPRQLLRGGERVELDVELE”, the “soluble fraction (log2)” value was -0.0501.
Consider “HMGMIRFSKEEQMLMMLYSPGSRLGLIAELESMKLQLNSRERKLRNLAESVLKKLEQITDEEFMQFDF”, for which the “soluble fraction (log2)” value was -1.31.
Next, “HMDSVTMYATTGVNVRSGPSTSYSIVGGLDRGDKVTRIGTSGNWTKVVWGNGSAYVFSKYLQTGY”: -1.81; “HMPQETPIPKSEIQSYDEIWLEPISTDNILRNELRGWYHVKDRWVENEFGNRFYLDTYASKWLAFPS”: -0.0557.
For the sequence “HMPLIPIAIELARHALPSLIGAIAGDKSEKVAKEVVDAALKTTGKTTPDEALHALQADPQLAHEYRLSLL”, the “soluble fraction (log2)” value came to 0.287.
Next, “HMHAQDTLMTRAGETRTVKILEIGLEEIKYRIWGLDDSPVIVIDKIDVKQIVFSNGEKMTIVQ”: -1.44.
For “HMVTINTASLEKAIADAKAVVKESYTTDSYNAMKAVLDEAEDLLKEEAQDQDTIDAKTEALNAAIEALVKR”, the “soluble fraction (log2)” value amounted to 0.0369.
For the sequence “HMTSISMDEKVVLGWHQVTTGAANSGMDKVVSNTSGLNVISPTWFKLSDNKGNYISIASKDYVDAAHKKGL”, the “soluble fraction (log2)” value is -0.232.
Next, “HMPVGVPGVVYNTDSLNVRKGAGTNYDIVSKLKRGSVIEVLEQTAVDGTVWGRIAEGWVNMEYVSL”: -0.43; “HMTVADMQQKANVKRRNSNSHEAILDATVKLLGSSGYIDFSIEKVASQAGVGKQTIYRWWPSRADLVLEVW”: -0.109; “HMKREETLKALATKNANYVARSGRRYSFEPMNPYERRIIHTAVQEIEGVTSRSIGSGMDRRVLIEPEGGV”: -0.194.
For the sequence “HMKKTIIVHVVGEVNTPGIVELNEGARIIDAINGAGGKTEEADMSKINLAYVIEDGSQIYVPSIYE”, the “soluble fraction (log2)” value was -0.227.
The same measure for “HMDDSVVFSLNAKGIRLTGAGKYGEAIALFDKAIAAKPGLSGLYFNRAEARRLSGDLPGARSDLEQALAI”: -0.453; for “HMQPAALEAQVIKLVRLHAPIKARQLATILANEFGQHVDRSTVNSLLYQLRAQGKVAQNAAYQWSLT”: -0.65.
The same measure for “HMTVSGNIAGDYKDYLPQKTDVINGMTVTYRMVDDAVYLASWKHAGQNHVFLFNDPVSVERAREMI”: -0.577.
The same measure for “HMNKTLTEQIYDELKSAIIELELKPGEFVTEEYLAEQLGVSRTPLKSAISKLIFEGLMAYEVGKGTYIS”: -0.747; for “HMGGYVTGTIDLTKFGYAFVITEESEDDVFVAARNLNTALHGDQVKVLLYARHKGKRPEGEVVEIISRSRA”: -1.11; for “HMLLAPLRLGAAPDIKAQAPLATILARHNGEMEAKDLWQRFGGEIDAFYLQLKTEVAHGWIVEPEPA”: -0.816.
“HMQDRDKNIEEGRQLVLHEMDRLDLVDEPLHDVARQLNMKAVEDMFAAVGAGDLRLGQIIHQLLKQADTN”: the “soluble fraction (log2)” value was -0.0442.
For “HMDSKKNLLGKNGLAFTTLRPAGTVLIDGQRHDVISNGDMIPKGATVRVIAIEGASITVEALPD”, the “soluble fraction (log2)” value is 0.155.
Next, “HMGKRPTIQMVAEMAGVSRGTVDRVLNGRSYVSAQVRQRVLAALQETGYISSREHHQQALQS”: -0.0246.
Next, “HMHAPLEVGSVVRIEGQKALGTILSISDREAIVALGALKTTIPLKRLHGVSPAEAQRHLRKTTPAQAVR”: 0.0521; “HMSSESIIIKKLIEEFIHNENKYSPLSDEKLSYLLKNKGFSVARRTVAKYRDELGILSTRERKIKI”: -0.745.
For the sequence “HMTSSSGTITADWLNVRSGAGTNFSRLGSIAGGTRLTVISVHGEWYKITASFEGEIRTGYVHSQYVQMDGE”, the “soluble fraction (log2)” value was -3.96.
Next, “HMTLALKQGSTGSTVKQVQQKLKNWGYYSGAVDGIFGSGTRKAVVLFQKRNKLTADGIVGSKTLEALGIYV”: -1.05.
Next, “HMIGIRLKELVLKNQSAWVGLRVSELDISRKTMIVMIRRGDKMLIPNGSTILRSGDVLLLYTR”: -0.452.
Next, “HMTVTKYGKKILEIVSSSRSHMTAEEIFDALRQTYPTVVLATVYNNLNRLWQDDLIRKVSVEGMPDRYD”: -1.22; “HMAPKVHLLKVPVDKIREIIGTGGKVIRQITEETGAKIDISDDGSVKVSSPDQSSIDAATTWITGIIAE”: 0.0652; “HMAVKTEHGRIWKALPEGQDGYREDVPMFTSKSMYDGSAGIGIFLIRLYEATSDERWLKEAEEAAAHII”: 0.351.
Consider “HMVFSKEELLFNSDSLLSLYPNDNKLLETILSEKIDHAVKNNDMSMYKEILVIDPKNPLANYHLLM”, for which the “soluble fraction (log2)” value came to 0.0579.
The same measure for “HMNDREAAYEDLPDELVRVGQKVFIKSLETEGVIVQPPNKKGEVRVRSGNISTNVKRSDLGLPIEKP”: 0.129; for “HMITNMIIIMKPNASEEAIEKVKHLIESKGLQAHLSKGDEVTIVGVVGDKTRLHDSNIEISEGVDKIVNVT”: 0.317; for “HMNVESLVGKQVIVSETIDNLKATGQVKVNGLEWTARAADETDIIPQGTEVTINEVSGVKLIVSR”: 0.241.
On to “HMKNVSVKMILSPESLGEIQVDLVFSKGKDLEIMLRPETAEVAKLIQSNSASLREQLSLEHKGPLSLNVS”, for which the “soluble fraction (log2)” value was -0.626.
Next, “HMNVEALIGREGRVTDKIEANGYGRVKVDGDSWKAKSANGAEIRQNTDVRILSIDSVIITVEP”: -0.379; “HMNDLVTWDRYKIELGDTLSEIAQKLVTRVDILKTVNQIQGTRIIAGNSLMVPRTTDTNVLTYL”: -0.174; “HMVNLKQVELREHHPWVGHKIKELDISRHTLIVMIRRGDNAIVPNGDTLIKSGDIVFVFSKR”: -1.05.
Turning to “HMRLARPLTPTEERVLRLLASDMSNAKIGEVLGIRLPTVKSHVSHIMQKLGVTSRAKARTAAQQLGI”, the “soluble fraction (log2)” value was -0.887.
As to “HMVISLREINLIGVYGRPNARRALVRLSNGRYVRVEVGSDLDGGKVTAIGDEALNFVKRGRTYAIQLPA”, the “soluble fraction (log2)” value is -1.55.
For “HMPRSLGADLRAIRKGRRLTLTDMAEALDRSVGWVSQVERDISTPSISDLRRMAEILDVPVSLLFG”, the “soluble fraction (log2)” value was -2.87.
As to “HMEFEYTVVVPETRGKTIGEAGRILLDLELKYTSESMNIREDSKVIDQFPSPGTEVSKGSIIDLYLDE”, the “soluble fraction (log2)” value came to 0.0563.
The same measure for “HMAPQSAAAILRYLSSGAIRGVGPATAQRIVERFGTDSLEIIQNRPKELAAINGISINKALSISEEYAKQY”: -0.831; for “HMAELVISVKADGTIHYQDRQLTKEALAAVLETRPEALLNLYVDEKAPFEAFVGVVDIARLKRGGHFVIST”: -0.632; for “HMGVEALTPRQREVLALMAQGRSNGWIAAELGLSEKAIVQHTSNIYDMLGLAVDADDHRRVLAVIHYLT”: -1.25.
With “HMDGPELYESMKAIVPDQLDRTIFLTGGAYTPRAQEFLARVPNQQMEKPFEFEALRSLLARLT”, the “soluble fraction (log2)” value stood at 0.0477.
The same measure for “HMEDFDLSDTERKIIAQIGHGYSNKEIAQKLGFSEGTIRNYLSVILDKLDLRDRTQLAIWYLSR”: -0.143; for “HMKIMSLSERHQKILELLKVNGIVSVNSLSRQLNVSSVTIRKDLGLLEEKKLLYRSHGGAIQID”: -3.08; for “HMSPRQVTAVRSGSPMPVLPGEDWRLYDASGALVARGSGAAPIPKSTGLLRLNSEGLDGLADRWIWVL”: -0.255.
The same measure for “HMKEGTIPPVVNRTLSDAEFVLKSYGYELGRVSEQHSDMPKDIVIKQSPEAGTVADPGTRVDVVVSIGKA”: 0.404.
Next, “HMDKGQRGWINLVSVPTARVIIDGYDTGHETPLYGYEVERGKRKVTLISLDGTYERTYEIRIEPGTTTRVR”: -0.775.
With “HMAKYEVVAKDIISRIKQNEFETTLKLPTEDEMIEYYQVSRNTVRSALKLLTSQGIIFSRQGSGFYIRQRS”, the “soluble fraction (log2)” value was -0.677.
The same measure for “HMRRADRLLQLIQILRRHRRPVTGDVMARELEVSLRTVYRDIATLTIEGVPIRGEAGVGYVLGEGY”: -2.39; for “HMYEGLILINKYDSLVSAKLETNKIKSLGLFFEDMEEKIAVFSGPFKNNDINLKLDFLIRNGYLDAKIY”: -4.51; for “HMGEWNSVFSVPSSVVDKHLKTASSVYVKVLLVILRNAGNRISDQQISEQLSVPVDEVQEAIRYWNAAGIF”: -0.247.
The same measure for “HMGLDPVFKKWVDDNPWYTENRVLRALTHDYAEELKQTNPQLVGVEFLDQVKKRVQADHPEFFQ”: 0.141.
In the case of “HMVKDYIQVTVNKEPVILKGKKDYIFIDIFNYIEFDLTIPKGSLYLLLNGKNAGYHDKLLDGDVIELGW”, the “soluble fraction (log2)” value is -1.72.
Next, “HMAPPTAEFFAHLPAEALSAVRRSVEEGNARGIDEAILRVETLDGEAGRVLRGLAARYEYGRILELTQR”: 0.117; “HMNQNIYVPKLEGLQIEEASSILKSKGLNIEITDSIFRKDAVPGAIIEQTPKPNSRVKTGRNIYVSIYSK”: -0.0536; “HMIMNEYEELRDRYLIGQIWKIGDLIEAKGIEGKIIQRGTNYVTFNDNNGKVHKAWLHEIKYEQ”: -0.343.
“HMYDEKTLRKAVLDYVRDNDDGRLDLMKIDSYLTSRYGNIDYAALGYNRLSMFISSFPELRRNSNYVTLRK”: the “soluble fraction (log2)” value is -0.164.
With “HMEEKKYEVGDVVSFNYLYKNSFAEGKVSSLIHSGTITRIIDGRPAPYLINRGTGWLSNDLILT”, the “soluble fraction (log2)” value is -0.958.
For “HMNNWRRSLEREVTASLARGDRDIFDGLNRSFEAALITKALEHTGGRRIEAATLLGIGRNTLTRKIQDLGL”, the “soluble fraction (log2)” value is -1.83.
For “HMSREMIKSELESISGLGKSGIEKLYTHFINIENIKSASLENIRNIPGISYKVADNIYKHFH”, the “soluble fraction (log2)” value was -0.195.
The same measure for “HMADLSAYAGKEGMTDSVLRPSGKVDIEGHILDAVSRGDFIEKGKRVIVIKAEGSYLVVKKRMP”: -0.175; for “HMTEFWTGPITTVTKANFADWTLDTNQDRITANVWLTRADSKGLFNITPGKETAFDIVDYLSPLDTEWA”: -0.188; for “HMTMVKYRYLTDGELKEFEEEFKHFLIANGLHSEEWERLNNEDSNKAIEVVALFSNLILDKV”: -1.54.
As to “HMLIDSEILKKTNKITIFLIYAFFSEYLINKEKKKILIGEYIKLSKDFLTIEEVKYFNHLLDDISK”, the “soluble fraction (log2)” value came to 0.0074.
With “HMDQPVIDVREFGARGDGKQDDAPAIQAAVRLAEQLGGGRVVVPATREFYLLGSTIRIRGHHVTLTGPGAR”, the “soluble fraction (log2)” value came to 0.0155.
